# Results: patent publication US20030157553A1, “Methods of assaying for G protein-coupled receptor ligands and modulators” (priority 2000, published 2003)
# Columns and labels:
# β2AR [1] = test: Agonist affinity shift assay ([125I] iodopindolol), formation of high agonist affinity complex (HAC); type: binding; settings: 1 μM arrestin, FIG. 2A
# From the text: (§1) Mutagenesis and Biochemical Characterization of β-Arrestins—Mutations Arg169→Glu (CGG→GAG), Gln394→Ter (CAA→TAA), and Asp383→Ter (GAT→TAG) were introduced by polymerase chain reaction in β-arrestin construct pBARR (Gurevich et al. (1995) J. Biol. Chem. 270:720-731), that was used for in vitro transcription and translation, as described (Gurevich et al. (1995), supra). NcoI/HindIII 1404-base pair open reading frame was then subdloned into appropriately digested Escherichia coliexpression vector pTrcHisB (Invitrogen). […]
# Agonist Affinity ShiftAssay—P-β2AR or β2AR (10-15 fmol/assay) was incubated in 0.25 ml of 10 mM Tris-HCl, pH 7.4, 100 mM NaCl (buffer A) containing 0.1 mg/ml bovine serum albumin in the presence of 65-75 fmol of [^125I] iodopindolol (NEN Life Science Products) and the indicated concentrations of arrestins and agonists for 60 min at 22° C. […] Receptor-containing liposomes with bound radioligand were eluted with buffer A (between 0.6 and 1.5 ml), and radioactivity was quantitated in a liquid scintillation counter. Nonspecific binding was determined in the presence of 10 μM alprenolol. […]
# β2AR [2] = test: Direct binding assay of in vitro translated tritiated arrestins to purified β2AR reconstituted into phospholipid vesicles; settings: unphosphorylated β2AR, activated by 0.1 mM agonist isoproterenol; FIG. 1A
# From the text: as §1
# Direct Binding Assay—In vitro translated tritiated arrestins (50 fmol) were incubated in 50 mM Tris-HCl, pH 7.5, 0.5 mM MgCl2, 1.5 mM dithiothreitol, 50 mM potassium acetate with 7.5 pmol of the various functional forms of rhodopsin or with P-β2AR or β2AR (100 fmol/assay) in a final volume of 50 μl for 5 min at 37° C. in room light (rhodopsin) or for 60 min at 30° C. in the presence of 0.1 mM -agonist isoproterenol. […] Nonspecific binding determined in the presence of 0.3 μg of liposomes was subtracted.
molecule,measurement,setting,value
β-arrestin-(Arg169→Glu): bovine β-arrestin mutant Arg169→Glu that reverses the charge of the putative phosphorylation-sensitive trigger (protein) MGDKGTRVFKKASPNGKLTVYLGKRDFVDHIDLVEPVDGVVLVDPEYLKERRVYVTLTCAFRYGREDLDVLGLTFRKDLFVANVQSFPPAPEDKKPLTRLQERLIKKLGEHAYPFTFEIPPNLPCSVTLQPGPEDTGKACGVDYEVKAFCAENLEEKIHKRNSVRLVIEKVQYAPERPGPQPTAETTRQFLMSDKPLHLEASLDKEIYYHGEPISVNVHVTNNTNKTVKKIKISVRQYADICLFNTAQYKCPVAMEEADDTVAPSSTFCKVYTLTPFLANNREKRGLALDGKLKHEDTNLASSTLLREGANREILGIIVSYKVKVKLVVSRGGLLGDLASSDVAVELPFTLMHPKPKEEPPHREVPEHETPVDTNLIELDTNDDDIVFEDFARQRLKGMKDDKEEEEDGTGSPRLNDR,percentage of HAC formed by unphosphorylated β2AR,β2AR [1],22±4%
same,binding to activated unphosphorylated receptor,β2AR [2],significantly higher binding
